Test results published in patent US20260144854A1 (UNIVERSITY OF CHICAGO, published 2026).
Values belong to the binder of their own block, whether it stands above or below them.

Tests used:
[1] = molecular target: T1, human neutrophil elastase (ELANE)
T1 chain: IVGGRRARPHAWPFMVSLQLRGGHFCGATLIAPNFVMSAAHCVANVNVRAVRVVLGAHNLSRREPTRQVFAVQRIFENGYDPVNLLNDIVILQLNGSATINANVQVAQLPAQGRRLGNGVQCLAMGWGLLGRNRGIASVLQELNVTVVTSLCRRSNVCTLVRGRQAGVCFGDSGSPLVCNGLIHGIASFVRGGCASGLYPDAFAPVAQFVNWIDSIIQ

[2] = molecular target: T2, human neutrophil elastase (ELANE) (human, UniProt P08246 30-247); assay: from the inventors' studies of ECP as allosteric activator of ELANE (chromogenic substrate kinetics, FIG. 7); method of the KD not stated
T2 construct: Native protein: in human PMN conditioned media in the co-immunoprecipitation, purified native ELANE (Abcam) in the enzyme and cleavage assays; also called human ELANE
T2 sequence: T1 chain

[3] = molecular target: T3, full length recombinant CD95 protein (FL-CD95), P25445
T3 chain: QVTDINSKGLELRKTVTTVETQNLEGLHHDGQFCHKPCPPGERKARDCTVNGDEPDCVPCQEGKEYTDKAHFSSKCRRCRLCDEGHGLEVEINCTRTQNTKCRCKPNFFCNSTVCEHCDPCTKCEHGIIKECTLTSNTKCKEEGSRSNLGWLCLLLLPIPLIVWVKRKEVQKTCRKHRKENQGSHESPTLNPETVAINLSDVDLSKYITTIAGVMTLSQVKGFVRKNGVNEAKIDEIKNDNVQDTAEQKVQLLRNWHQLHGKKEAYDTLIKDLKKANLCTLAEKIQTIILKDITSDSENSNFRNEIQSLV

[4] = molecular target: T4, C-terminal domain of CD95 (amino acids 157-320; C-CD95), P25445
T4 chain: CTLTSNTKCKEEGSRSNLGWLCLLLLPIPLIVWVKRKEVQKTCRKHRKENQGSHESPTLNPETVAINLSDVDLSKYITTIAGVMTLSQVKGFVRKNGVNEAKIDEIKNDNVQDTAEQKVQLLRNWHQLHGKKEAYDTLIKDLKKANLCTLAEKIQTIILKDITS

[5] = molecular target: alpha-1-anti-trypsin (A1AT), P01009
Sequence of alpha-1-anti-trypsin (A1AT), P01009 (P01009 whole entry, looked up): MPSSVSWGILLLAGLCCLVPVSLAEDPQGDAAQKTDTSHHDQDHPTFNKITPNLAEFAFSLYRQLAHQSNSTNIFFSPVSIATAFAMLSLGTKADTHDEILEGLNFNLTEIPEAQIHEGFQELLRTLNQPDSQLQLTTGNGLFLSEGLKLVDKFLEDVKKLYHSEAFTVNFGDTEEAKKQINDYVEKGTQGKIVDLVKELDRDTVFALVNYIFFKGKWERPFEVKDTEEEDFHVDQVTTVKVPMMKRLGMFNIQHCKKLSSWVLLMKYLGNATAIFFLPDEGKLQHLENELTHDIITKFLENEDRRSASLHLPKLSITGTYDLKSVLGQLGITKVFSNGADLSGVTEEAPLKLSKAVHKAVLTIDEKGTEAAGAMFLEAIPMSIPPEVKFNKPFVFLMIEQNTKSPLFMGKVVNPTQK

Kd [2]: ~20 nM
B1: eosinophil cationic protein (ECP) (enzyme)
chain: RPPQFTRAQWFAIQHISLNPPRCTIAMRAINNYRWRCKNQNTFLRTTFANVVNVCGNQSIRCPHNRTLNNCHRSRFRVPLLHCDLINPGAQNISNCTYADRPGRRFYVVACDNRDPRDSPRYPVVPVHLDTTI
notes: also called ribonuclease 3
kcat of ELANE for its substrate (chromogenic substrate activity assay) [1]: increases kcat for its substrate by 12-fold without altering KM

B2: cathepsin G (CTSG) (protein)
chain: IIGGRESRPHSRPYMAYLQIQSPAGQSRCGGFLVREDFVLTAAHCWGSNINVTLGAHNIQRRENTQQHITARRAIRHPQYNQRTIQNDIMLLQLSRRVRRNRNVNPVALPRAQEGLRPGTLCTVAGWGRVSMRRGTDTLREVQLRVQRDRQCLRIFGSYDPRRQICVGDRRERKAAFKGDSGGPLLCNNVAHGIVSYGKSSGVPPEVFTRVSSFLPWIRTTMRS
degradation of purified CD95 [3]: cleaved purified CD95 with an identical degradation pattern to ELANE

B3: human neutrophil elastase (ELANE) (protein)
chain: T1 chain
degradation of purified CD95 [3]: ELANE degrades the C-terminal domain of purified CD95
degradation by SDS-PAGE followed by coomassie blue staining [4]: ELANE preferentially cleaves the C-terminal domain of CD95
ELANE catalytic activity (chromogenic substrate assay) [5]: loss of ELANE catalytic activity was confirmed by a chromogenic substrate assay

B4: proteinase 3 (PRTN3) (protein)
chain: IVGGHEAQPHSRPYMASLQMRGNPGSHFCGGTLIHPSFVLTAAHCLRDIPQRLVNVVLGAHNVRTQEPTQQHFSVAQVFLNNYDAENKLNDVLLIQLSSPANLSASVATVQLPQQDQPVPHGTQCLAMGWGRVGAHDPPAQVLQELNVTVVTFFCRPHNICTFVPRRKAGICFGDSGGPLICDGIIQGIDSFVIWGCATRLFPDFFTRVALYVDWIRSTLR
degradation of purified CD95 [3]: cleaved purified CD95 with an identical degradation pattern to ELANE

B5: murine neutrophil elastase (mELANE) (protein)
chain: IVGGRPARPHAWPFMASLQRRGGHFCGATLIARNFVMSAAHCVNGLNFRSVQVVLGAHDLRRQERTRQTFSVQRIFENGFDPSQLLNDIVIIQLNGSATINANVQVAQLPAQGQGVGDRTPCLAMGWGRLGTNRPSPSVLQELNVTVVTNMCRRRVNVCTLVPRRQAGICFGDSGGPLVCNNLVQGIDSFIRGGCGSGLYPDAFAPVAEFADWINSIIRSHNDHLLTHPKDREGRTN
degradation of purified CD95 [3]: cleaved purified CD95 with an identical degradation pattern to ELANE
